This is an account of results in doi:10.1101/2020.12.01.405779.

The target in test [1] is FUL3 (wheat). The test can be described thus: two-hybrid.
The target of test [2] is FUL2 (wheat). Kind of test: two-hybrid.

As to “VRT2 (Bridge protein of the yeast three-hybrid assay) (natural protein)”, the percent reduction of the α-gal activity of the FUL3 - SEP1-2 interaction in test [1] stood at 93.8%. For the same substance, in test [2], the percent reduction of the α-gal activity of the FUL2 - SEP1-2 interaction amounted to 12%, the percent reduction of the α-gal activity of the FUL2 - SEP1-4 interaction came to 20.6% and the percent reduction of the α-gal activity of the FUL2 - SEP1-6 interaction was 22%.
